Laboratory results as given in patent publication US20220031841A1 (ABSCI, published 2022).

Columns and labels:
Assay in all cases: HuProt protein array, F635 z-score
[1] = biological target: T1, Chromobox protein homolog 1 (CBX1) (human, UniProt P83916 1-185)
T1 construct: The array carries full-length recombinant human proteins expressed in S. cerevisiae; also called Human Chromobox protein homolog 1
From the text: (§1) Large scale protein arrays are versatile and sensitive platforms for antibody specificity evaluation. They can be used for the evaluation of protein binding or affinity reagents that are widely employed in research and clinical applications. The microarray used in our target identification experiment provides the largest number of unique, full-length, individually purified human proteins on a single microscope slide. This allows thousands of interactions to be profiled in a high-throughput manner. The hill-length recombinant proteins are expressed in the yeast S. cerevisiae, purified, and printed on glass slides in duplicate along with a set of control proteins (GST, BSA, histones, IgG, etc.). Such microarray is not restricted to a particular type of surface coating, although the default is glass coated with ultra-thin nitrocellulose film for the non-covalent, yet irreversible, capture of active proteins to the surface. Fourteen Protein arrays were used for the antibody cross-reactivity assay of the samples. The antibodies were probed at […] on the arrays and incubated at room temperature for 1 hour. After probing, the arrays were washed according to the protocol and probed with Alexa-647-anti-human IgG […] specific secondary antibodies under conditions optimized for signal detection. The antibody-antigen binding score was calculated for each protein represented on the array and expressed as z-scores.
(§2) Antibody samples are probed on native HuProt arrays at 1 μg/ml and incubated at room temperature for 1 hour. After probing, the arrays are washed according to the standard protocols and probed with Alexa-647-anti-human IgG Fc gamma specific secondary antibodies under conditions optimized for signal detection.
(§3) Z score is the average Z score of the duplicate spots of a given protein (each protein is printed in duplicate on a HuProt™ array). The Z score of each spot on a given array is calculated according to the equation: […]

[2] = biological target: T2, Chromobox protein homolog 5 (CBX5) (human, UniProt P45973 1-191)
T2 construct: The array carries full-length recombinant human proteins expressed in S. cerevisiae; also called Human Chromobox protein homolog 5
T2 sequence (P45973 whole entry): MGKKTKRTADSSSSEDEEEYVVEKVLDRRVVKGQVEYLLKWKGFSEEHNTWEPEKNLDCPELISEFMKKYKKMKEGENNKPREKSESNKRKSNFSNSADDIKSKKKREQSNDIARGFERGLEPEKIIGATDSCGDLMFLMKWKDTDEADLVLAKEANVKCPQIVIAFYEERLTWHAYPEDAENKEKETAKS
From the text: as §1, §2, §3

[3] = biological target: T3, Cancer/testis antigen 1 (CTAG1A) (human, UniProt P78358 1-180)
T3 construct: The array carries full-length recombinant human proteins expressed in S. cerevisiae; also called NY-ESO-1; Cancer/Testis Antigen 1A
T3 sequence (P78358 whole entry): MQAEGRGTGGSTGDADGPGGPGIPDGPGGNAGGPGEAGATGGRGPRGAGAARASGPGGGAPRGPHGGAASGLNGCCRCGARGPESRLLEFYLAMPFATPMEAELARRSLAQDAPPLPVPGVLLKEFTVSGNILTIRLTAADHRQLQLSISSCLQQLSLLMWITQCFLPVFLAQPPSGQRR
From the text: as §1, §2, §3

[4] = biological target: T4, O-linked N-acetylglucosamine (GlcNAc) transferase (OGT) (human, UniProt O15294 2-1046)
T4 construct: The array carries full-length recombinant human proteins expressed in S. cerevisiae; also called Human OGT
T4 sequence: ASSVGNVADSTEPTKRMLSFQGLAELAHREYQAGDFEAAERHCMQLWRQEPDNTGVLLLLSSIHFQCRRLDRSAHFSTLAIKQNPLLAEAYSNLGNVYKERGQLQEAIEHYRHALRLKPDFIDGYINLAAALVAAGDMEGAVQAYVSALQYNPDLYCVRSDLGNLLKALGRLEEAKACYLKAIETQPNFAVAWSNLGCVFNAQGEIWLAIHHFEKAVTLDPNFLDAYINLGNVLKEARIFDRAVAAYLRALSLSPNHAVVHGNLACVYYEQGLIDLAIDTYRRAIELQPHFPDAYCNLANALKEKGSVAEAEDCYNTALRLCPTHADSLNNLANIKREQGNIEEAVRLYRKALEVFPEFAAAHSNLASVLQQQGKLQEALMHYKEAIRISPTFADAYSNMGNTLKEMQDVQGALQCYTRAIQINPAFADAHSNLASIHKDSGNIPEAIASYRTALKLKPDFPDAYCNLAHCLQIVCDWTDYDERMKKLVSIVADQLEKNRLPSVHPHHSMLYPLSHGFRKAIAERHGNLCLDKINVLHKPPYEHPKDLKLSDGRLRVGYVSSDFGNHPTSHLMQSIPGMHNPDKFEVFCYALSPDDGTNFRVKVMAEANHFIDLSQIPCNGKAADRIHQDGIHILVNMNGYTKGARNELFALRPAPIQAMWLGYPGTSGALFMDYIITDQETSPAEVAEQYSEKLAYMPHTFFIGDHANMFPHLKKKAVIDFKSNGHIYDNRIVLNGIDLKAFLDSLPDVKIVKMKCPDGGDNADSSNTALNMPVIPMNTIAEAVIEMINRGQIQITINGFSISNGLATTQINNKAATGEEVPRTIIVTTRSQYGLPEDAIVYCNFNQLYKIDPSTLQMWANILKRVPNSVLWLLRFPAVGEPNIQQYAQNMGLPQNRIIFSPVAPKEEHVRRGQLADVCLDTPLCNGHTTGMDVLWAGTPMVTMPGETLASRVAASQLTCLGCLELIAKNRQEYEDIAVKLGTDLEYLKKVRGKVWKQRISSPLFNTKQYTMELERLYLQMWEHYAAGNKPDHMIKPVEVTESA
From the text: as §1, §2, §3

[5] = biological target: T5, Alpha-taxilin (TXLNA) also known as interleukin-14A (human, UniProt P40222 1-546)
T5 construct: The array carries full-length recombinant human proteins expressed in S. cerevisiae; also called IL-14A; TXLNA/IL-14A
T5 sequence (P40222 whole entry): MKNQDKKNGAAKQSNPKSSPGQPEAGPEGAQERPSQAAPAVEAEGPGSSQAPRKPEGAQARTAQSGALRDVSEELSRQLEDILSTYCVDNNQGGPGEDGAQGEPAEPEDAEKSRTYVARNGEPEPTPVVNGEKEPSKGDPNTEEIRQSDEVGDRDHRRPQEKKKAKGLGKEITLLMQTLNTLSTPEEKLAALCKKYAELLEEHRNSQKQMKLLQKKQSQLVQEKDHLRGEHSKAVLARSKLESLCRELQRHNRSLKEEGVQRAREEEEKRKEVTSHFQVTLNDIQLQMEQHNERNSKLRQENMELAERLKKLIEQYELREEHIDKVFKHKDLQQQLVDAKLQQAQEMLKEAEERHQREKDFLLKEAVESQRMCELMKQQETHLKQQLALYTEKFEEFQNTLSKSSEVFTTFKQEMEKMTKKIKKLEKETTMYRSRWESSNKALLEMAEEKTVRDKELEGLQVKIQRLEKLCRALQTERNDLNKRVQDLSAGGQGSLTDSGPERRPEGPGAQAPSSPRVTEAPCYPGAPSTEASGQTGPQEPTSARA
From the text: as §1, §2, §3

[6] = biological target: T6, Melanoma-associated antigen 3 (MAGE-A3) (human, UniProt P43357 1-314)
T6 construct: The array carries full-length recombinant human proteins expressed in S. cerevisiae; also called Human MAGE-A3
T6 sequence (P43357 whole entry): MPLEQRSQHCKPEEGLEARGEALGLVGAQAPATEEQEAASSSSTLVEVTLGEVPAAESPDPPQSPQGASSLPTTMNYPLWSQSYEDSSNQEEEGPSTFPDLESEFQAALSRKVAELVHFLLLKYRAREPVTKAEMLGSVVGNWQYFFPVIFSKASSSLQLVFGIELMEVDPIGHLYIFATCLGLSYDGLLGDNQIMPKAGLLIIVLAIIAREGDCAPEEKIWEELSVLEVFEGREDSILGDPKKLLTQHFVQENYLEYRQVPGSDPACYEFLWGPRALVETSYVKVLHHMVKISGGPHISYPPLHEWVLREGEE
From the text: as §1, §2, §3

[7] = biological target: T7, Inorganic pyrophosphatase (PPA1) (human, UniProt Q15181 2-289)
T7 construct: The array carries full-length recombinant human proteins expressed in S. cerevisiae; also called Human PPA1
T7 sequence: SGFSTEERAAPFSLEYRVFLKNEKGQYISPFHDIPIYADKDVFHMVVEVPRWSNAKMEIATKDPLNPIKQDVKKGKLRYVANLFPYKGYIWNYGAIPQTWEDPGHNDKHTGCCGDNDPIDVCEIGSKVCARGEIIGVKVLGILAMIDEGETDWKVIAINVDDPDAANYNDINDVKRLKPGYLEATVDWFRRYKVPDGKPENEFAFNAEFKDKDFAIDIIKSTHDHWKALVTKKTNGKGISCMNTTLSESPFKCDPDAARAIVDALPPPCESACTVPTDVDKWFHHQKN
From the text: as §1, §2, §3

Measured: binding result

T1 sequence (P83916 whole entry): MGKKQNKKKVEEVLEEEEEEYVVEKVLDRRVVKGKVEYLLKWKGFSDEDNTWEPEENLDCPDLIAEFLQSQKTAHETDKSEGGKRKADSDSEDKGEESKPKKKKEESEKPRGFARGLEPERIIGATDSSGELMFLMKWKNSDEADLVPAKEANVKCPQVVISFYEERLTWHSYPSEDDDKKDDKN

B1: TMEL1007 (antibody, V domains shown)
VH: HVHLVQSGAEVKKPGSSVKVSCTASGGSFSSNPISWVRQAPGHGLQWMGGFVPLFGTANYAPSFHGRLTITADESTSTTYMELNSLRSEDSAVYYCARDFNWNFDFWGQGTLVTVSS
VL: QSALTQPASVSGSPGQSITISCTGTSSDIGSYNLVSWYRQYPGKAPKLMIYEVNKRPSGVSNRFSGSKSGNTASLTISGLQAEDEADYYCCSYAGTTTFVIFGRGTKLTVLG
notes: It was detected with an anti-human IgG Fc gamma secondary antibody
no binding (tested: 1 µg/ml): all assays above

B2: TMEL1008 (antibody, V domains shown)
VH: QVQLVQSGAEVKKPGSSVKVSCKASGGTFNRDGIIWVRQAPGQGLEWMGRIIPILGIANYAQKFQGRVTIIADKSTSTAYMELSSLRSEDTAVYYCARESEVGRGMDVWGQGTTVTVSS
VL: ASALTQPASVSGSPGQSITISCTGTSSDVGDYNYVSWYQQHPGKAPKLMIYDVSNRPSGVSHRFSGSKSGNTASLTISGLQAEDEADYYCSSYTISSTLGVFGPGTKVTVLG
notes: as for B1
not listed: [6]
no binding (tested: 1 µg/ml): all other assays above

B3: TMEL1010 (antibody, V domains shown)
VH: QVQLVQSGAEVKKPGASVKVSCKASGYTFSSYGISWVRQAPGQGLEWMGWISAYNGNTNYAKKLQGRVTMTTDTSTSTAYLELRSLRSDDTAVYYCARGDGPFDYWGQGTLVTVSS
VL: EIVMTQSPATLSVSPGERATLSCWASQSVSSSLAWYQQKPGQAPRLLMYGASNRATGIPARFSGSGSGTEFTLTISSLQSEDFAVYYCQQYNKWPPDTFGQGTKLEIKR
notes: as for B1
not listed: [7]
no binding (tested: 1 µg/ml): all other assays above

B4: TMEL1011 (antibody, V domains shown)
VH: PVQLVQSGAEVKKPGSSVKVSCKASGGTFSSYSFNWVRQAPGQGLEWMARIIPILGLANYAQKFQGRVTLTADESTSTAYMELSSLRSEDTAIFYCAGMVLGQLGFDPWGQGTLVTVSS
VL: QFMLTQPHSVSESPGRTVTISCTRSSGSIARNYVHWYQHRPGSSPTTVIYEDDQRPSGVPDRFSGSIDSSSNSASLTISGLKPEDEADYFCQSYDSNIWVFGGGTKLTVLG
notes: as for B1
not listed: [5]
no binding (tested: 1 µg/ml): all other assays above

B5: TMEL1014 (antibody, V domains shown)
VH: SVQLVESGGGVVQPGRSLRLSCAASGFTFSSYTMHWVRQAPGKGLEWVALISYDGSNKYYADSVKGRFTISRDNPKNTLYLQMNSLRVEDTAVYYCARDWTLGYWGQGTLVTVSS
VL: VSSELTQDPAVSVALGQTVRITCQGDSLRNYYANWYQQKPGQAPILVIYDKNNRPSGIPDRFSGSSSGNTASLTITGAQAEDEADYYCNSRDSSGYHLVFGGGTKLTVLG
notes: as for B1
not listed: [4] | [6]
no binding (tested: 1 µg/ml): all other assays above

B6: TMEL1002 (antibody, V domains shown)
VH: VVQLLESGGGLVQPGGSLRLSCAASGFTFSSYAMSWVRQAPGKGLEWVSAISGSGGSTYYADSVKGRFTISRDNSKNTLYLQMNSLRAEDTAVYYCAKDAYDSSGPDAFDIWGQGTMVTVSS
VL: ASALTQPASVSGSPGQSITISCTGTSSDVGDYNYVSWYQQHPGKAPKLMIYDVSNRPSGVSNRFSGSKSGNTASLTISGLQAEDEADYYCSSYTSSSTLVFGGGTKLTVLG
no binding (tested: 1 µg/ml): all assays above

B7: TMEL1013 (antibody, V domains shown)
VH: PVQLVQSGAEVKKPGSSVKVSCKASGGTFSSYTINWVRQAPGQGLEWMGRIIPILGVANYAQKFQGRVTITADKSTSTAYMDLSSLRSEDTAVYYCAREWERAFDYWGQGTLVTVSS
VL: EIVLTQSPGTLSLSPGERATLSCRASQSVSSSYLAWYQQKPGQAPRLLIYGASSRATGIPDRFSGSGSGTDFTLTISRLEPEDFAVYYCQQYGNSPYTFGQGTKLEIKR
not listed: [6]
no binding (tested: 1 µg/ml): all other assays above

B8: TMEL1009 (antibody, V domains shown)
VH: PVQLVQSGAEVKKPGSSVKVSCRASGGTFSNYGLNWVRQAPGQGLEWMGGIIPIFGSVNYAQKFQDRVTITADESTSTTYMDLNSLRSEDTAVYYCATERGHNMERAFDFWGQGTLVTVSS
VL: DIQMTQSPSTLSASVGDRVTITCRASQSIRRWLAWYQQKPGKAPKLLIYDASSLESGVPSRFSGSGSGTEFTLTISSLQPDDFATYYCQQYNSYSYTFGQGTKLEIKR
not listed: [6]
no binding (tested: 1 µg/ml): all other assays above
